From patent publication US20250213730A1 (Takeda / Millennium, published 2025) come the findings set out here.

The target in assay [1] is T1, Recombinant Human TfR Protein (R&D Systems; Catalog #2474-TR) (human, UniProt P02786 89-760).
T1 construct: Bought reagent, injected as analyte in SPR; also called hTfR1; hTFR1
The experiment in a line: SPR (Biacore 8K+), I2S immobilized on CM5 by amine coupling, TfR as analyte. Here is the method:
(§1) Surface Plasmon Resonance (SPR) assays: Binding affinity between human/mouse receptor with Iduronate 2 Sulfatase or idursulfase (I2S) tagged with an anti-transferrin receptor binding single domain antibody (VHH) was determined using the Biacore 8K+ instrument (Cytiva; Danaher Corporation). In this experiment, samples were immobilized on a series S sensor chip CM5 (Catalog #29104988) via amine coupling. Samples immobilized (ligand) were i) I2S-VHH ii) VHH-I2S iii) I2S as negative control iv) Holo transferrin peptide as positive control. 1 ug/mL of ligand, reconstituted in Acetate pH 4.0, was immobilized on individual flow cells for 420 s, yielding a final immobilization level of approximately 350 Response Units. Recombinant Human TfR Protein (R&D Systems; Catalog #2474-TR) and Mouse TfR1 (TR06671428-001; Takeda) were injected on this surface (as analyte) with a concentration range of 5, 2.5, 1.25, 0.625 & 0.156 ug/mL. Analyte series was injected for 120 s, followed by a dissociation phase for a duration that yields at least 10% dissociation of analyte. Resulting sensograms were analyzed using the 1:1 Binding Model.

Assay [2] deals with T2, Mouse TfR1 (TR06671428-001; Takeda) (mouse, UniProt Q62351 89-763).
T2 construct: Injected as analyte in SPR; also called mTFR1; mouse transferrin receptor 1
T2 sequence (Q62351 89-763 limits assumed): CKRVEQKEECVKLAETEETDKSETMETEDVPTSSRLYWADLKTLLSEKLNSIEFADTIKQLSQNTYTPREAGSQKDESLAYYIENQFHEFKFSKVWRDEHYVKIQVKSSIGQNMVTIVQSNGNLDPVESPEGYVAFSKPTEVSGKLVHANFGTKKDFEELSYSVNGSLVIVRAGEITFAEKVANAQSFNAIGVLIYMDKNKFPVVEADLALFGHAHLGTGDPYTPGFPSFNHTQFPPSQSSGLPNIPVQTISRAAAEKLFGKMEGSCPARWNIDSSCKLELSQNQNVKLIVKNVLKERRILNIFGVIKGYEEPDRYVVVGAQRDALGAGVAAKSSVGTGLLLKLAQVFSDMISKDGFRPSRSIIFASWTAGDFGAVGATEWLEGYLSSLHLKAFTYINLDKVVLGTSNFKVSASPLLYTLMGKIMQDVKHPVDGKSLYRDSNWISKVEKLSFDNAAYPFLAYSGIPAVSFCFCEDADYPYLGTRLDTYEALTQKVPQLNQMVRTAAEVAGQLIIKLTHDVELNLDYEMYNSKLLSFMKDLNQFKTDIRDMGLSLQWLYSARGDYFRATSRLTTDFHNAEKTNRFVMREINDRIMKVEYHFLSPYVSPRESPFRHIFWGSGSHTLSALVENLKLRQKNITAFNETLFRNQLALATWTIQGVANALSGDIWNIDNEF
The experiment in a line: SPR (Biacore 8K+), I2S immobilized on CM5 by amine coupling, TfR1 as analyte. Here is the method: as §1
(SPR reads the build-up and loss of mass on a sensor chip optically.)

T1 sequence (P02786 89-760 limits assumed): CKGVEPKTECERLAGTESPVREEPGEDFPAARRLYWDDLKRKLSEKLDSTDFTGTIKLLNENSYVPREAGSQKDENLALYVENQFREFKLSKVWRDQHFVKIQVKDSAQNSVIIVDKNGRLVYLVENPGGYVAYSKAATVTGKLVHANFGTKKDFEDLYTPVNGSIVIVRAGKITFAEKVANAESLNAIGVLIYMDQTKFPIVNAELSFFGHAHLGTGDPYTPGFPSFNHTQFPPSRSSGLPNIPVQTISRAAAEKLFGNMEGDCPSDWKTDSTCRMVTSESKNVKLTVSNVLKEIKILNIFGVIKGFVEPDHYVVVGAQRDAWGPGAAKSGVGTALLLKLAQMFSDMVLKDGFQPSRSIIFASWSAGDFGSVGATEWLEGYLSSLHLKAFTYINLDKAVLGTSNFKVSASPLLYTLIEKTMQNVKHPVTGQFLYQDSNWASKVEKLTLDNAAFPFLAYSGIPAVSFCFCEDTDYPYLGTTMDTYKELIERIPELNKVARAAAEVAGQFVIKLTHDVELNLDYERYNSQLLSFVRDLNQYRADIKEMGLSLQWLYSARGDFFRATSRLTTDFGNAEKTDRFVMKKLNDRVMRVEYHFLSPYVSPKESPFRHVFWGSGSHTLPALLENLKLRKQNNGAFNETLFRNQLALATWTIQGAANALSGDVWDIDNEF

B1: I2S control (untagged human iduronate-2-sulfatase, purified protein) (enzyme)
chain: SETQANSTTDALNVLLIIVDDLRPSLGCYGDKLVRSPNIDQLASHSLLFQNAFAQQAVCAPSRVSFLTGRRPDTTRLYDFNSYWRVHAGNFSTIPQYFKENGYVTMSVGKVFHPGISSNHTDDSPYSWSFPPYHPSSEKYENTKTCRGPDGELHANLLCPVDVLDVPEGTLPDKQSTEQAIQLLEKMKTSASPFFLAVGYHKPHIPFRYPKEFQKLYPLENITLAPDPEVPDGLPPVAYNPWMDIRQREDVQALNISVPYGPIPVDFQRKIRQSYFASVSYLDTQVGRLLSALDDLQLANSTIIAFTSDHGWALGEHGEWAKYSNFDVATHVPLIFYVPGRTASLPEAGEKLFPYLDPFDSASQLMEPGRQSMDLVELVSLFPTLAGLAGLQVPPRCPVPSFHVELCREGKNLLKHFRFRDLEEDPYLPGNPRELIAYSQYPRPSDIPQWNSDKPSLKDIKIMGYSIRTIDYRYTVWVGFNPDEFLANFSDIHAGELYFVDSDPLQDHNMYNDSQGGDLFQLLMP
notes: Negative control in the SPR assay; also called idursulfase; IDS
Take B1: the binding result in assay [1] and in assay [2] was “no binding (tested: analyte 0.156-5 ug/mL)” each time.
